Source: patent publication US20170015742A1 (published 2017)

Columns and labels:
VEGF-A = VEGF-A (UniProt P15692-4 27-191, limits assumed); test: SPR (Biacore), DVD-Ig captured by anti-human Fc, antigen injected
Experimental: (§1) For example, approximately 9000 RU of goat anti-human Fc specific polyclonal antibody (Thermo Fisher Scientific Inc., Rockford, Ill.) diluted in 10 mM sodium acetate (pH 4.5) is directly immobilized across a CM5 research grade biosensor chip using a standard amine coupling kit according to manufacturer's instructions and procedures at 25 μg/ml. Unreacted moieties on the biosensor surface were blocked with ethanolamine. For kinetic analysis, rate equations derived from the 1:1 Langmuir binding model were fitted simultaneously to multiple antigen injections (using global fit analysis) with the use of Scrubber 2 (BioLogic Software), Biacore Biaevaluation 4.0.1 software or Biacore T100 Evaluation software. Purified antibodies or DVD-Ig molecules were diluted in running buffer for capture across goat anti-human Fc reaction surfaces. Antibodies or DVD-Ig molecules to be captured as a ligand (1 μg/ml) were injected over reaction matrices at a flow rate of 10 μl/minute. During the assay, all measurements were referenced against the capture surface alone (i.e., with no captured antibody or DVD-Ig molecule). […] The equilibrium dissociation constant KD (M) of the reaction between antibodies and the target antigen was then calculated from the kinetic rate constants by the following formula: KD=Koff/Kₒₙ. Binding was recorded as a function of time and kinetic rate constants were calculated.

PDGF-BB = PDGF-BB (UniProt P01127 82-190); test: as above
PDGF-BB, sequence (P01127 82-190): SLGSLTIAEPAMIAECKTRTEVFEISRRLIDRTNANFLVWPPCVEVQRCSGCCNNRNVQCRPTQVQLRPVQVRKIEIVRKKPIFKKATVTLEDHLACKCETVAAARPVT
Experimental: as §1

VEGF-A, sequence (P15692 other isoform, or with tags, fused parts or gaps limits assumed): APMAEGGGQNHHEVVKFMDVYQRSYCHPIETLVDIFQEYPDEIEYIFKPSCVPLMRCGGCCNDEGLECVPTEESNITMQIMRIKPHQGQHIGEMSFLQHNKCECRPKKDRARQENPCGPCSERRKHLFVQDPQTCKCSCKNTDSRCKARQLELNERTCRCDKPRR

Binder	Kd (VEGF-A)	kon (VEGF-A)	Kd (PDGF-BB)	kon (PDGF-BB)
1B10.1_GS_CL-33675 (PR-1611292) (bispecific antibody, human IgG1, kappa, L234A L235A, DVD-Ig: outer hBEW-1B10.1 (VEGF), inner CL-33675 (PDGF), linkers GS-H10 / GS-L10(dR); Human IgG1 L234A, L235A, H435A with kappa light chain) heavy: EVQLVESGGGLVQPGGSLRLSCAASGFSFSKYDMAWFRQAPGKGLEWVASITTSGVGTYYRDSVKGRFTVSRDNAKSTLYLQMNSLRAEDTAVYYCARGYGAMDAWGQGTTVTVSSGGGGSGGGGSEVTLRESGPALVKPTQTLTLTCTFSGFSLSTYGMGVGWIRQPPGKALEWLANIWWDDDKYYNPSLKNRLTISKDTSKNQVVLTMTNMDPVDTATYYCARIESSGPKYSFDYWGQGTMVTVSSASTKGPSVFPLAPSSKSTSGGTAALGCLVKDYFPEPVTVSWNSGALTSGVHTFPAVLQSSGLYSLSSVVTVPSSSLGTQTYICNVNHKPSNTKVDKKVEPKSCDKTHTCPPCPAPEAAGGPSVFLFPPKPKDTLMISRTPEVTCVVVDVSHEDPEVKFNWYVDGVEVHNAKTKPREEQYNSTYRVVSVLTVLHQDWLNGKEYKCKVSNKALPAPIEKTISKAKGQPREPQVYTLPPSREEMTKNQVSLTCLVKGFYPSDIAVEWESNGQPENNYKTTPPVLDSDGSFFLYSKLTVDKSRWQQGNVFSCSVMHEALHNAYTQKSLSLSPGK light: DIQMTQSPSSLSASVGDRVTITCKASQDIDDYLSWYQQKPGKSPKLVIYAATRLADGVPSRFSGSGSGTDYTLTISSLQPEDFATYYCLQSSSTPWTFGGGTKVEIKGGSGGGGSGGEIVLTQSPGTLSLSPGERATLSCRASSGSIWYSFVSWYQQKPGQAPRLLIYADDQRASGIPDRFSGSGSGTDFTLTISRLEPEDFAVYYCQSYGINIDVVFGGGTKVEIKRTVAAPSVFIFPPSDEQLKSGTASVVCLLNNFYPREAKVQWKVDNALQSGNSQESVTEQDSKDSTYSLSSTLTLSKADYEKHKVYACEVTHQGLSSPVTKSFNRGEC	0.062 nM	2.1e+06 M⁻¹ s⁻¹	0.00054 nM	2.2e+07 M⁻¹ s⁻¹
1E3.4_GS_3E2.1 (PR-1612495) (bispecific antibody, human IgG1, kappa, L234A L235A, DVD-Ig: outer hBEW-1E3.4 (VEGF), inner hBFU-3E2.1 (PDGF), linkers GS-H10 / GS-L10(dR); Human IgG1 L234A, L235A, H435A with kappa light chain) heavy: EIQLVQSGSELKKPGASVKVSCKASGYPFTNSGMYWVKQAPGQGLEYMGWINTEAGKPTYADDFKGRFVFSLDTSVSTAYLQISSLKAEDTAVYFCARWGYISDNSYGWFDYWGQGTLVTVSSGGGGSGGGGSEVQLVQSGAEVKKPGSSVKVSCKASGYTFTESYMYWVKQAPGQGLELIGRIDPEDGSTDYVEKFKNKATLTADKSTSTAYMELSSLRSEDTAVYFCARFGARSYFYPMDAWGQGTTVTVSSASTKGPSVFPLAPSSKSTSGGTAALGCLVKDYFPEPVTVSWNSGALTSGVHTFPAVLQSSGLYSLSSVVTVPSSSLGTQTYICNVNHKPSNTKVDKKVEPKSCDKTHTCPPCPAPEAAGGPSVFLFPPKPKDTLMISRTPEVTCVVVDVSHEDPEVKFNWYVDGVEVHNAKTKPREEQYNSTYRVVSVLTVLHQDWLNGKEYKCKVSNKALPAPIEKTISKAKGQPREPQVYTLPPSREEMTKNQVSLTCLVKGFYPSDIAVEWESNGQPENNYKTTPPVLDSDGSFFLYSKLTVDKSRWQQGNVFSCSVMHEALHNAYTQKSLSLSPGK light: ATQLTQSPSSLSASVGDRVTISCRASEGVYSYMHWYQQKPGKQPKLLIYKASNLASGVPSRFSGSGSGTDFTLTISSLQPEDFATYFCHQNWNDPLTFGQGTKLEIKGGSGGGGSGGETVLTQSPATLSLSPGERATLSCRASESVSTLMHWYQQKPGQQPRLLIYGASNLESGVPARFSGSGSGTDFTLTISSLEPEDFAVYFCQQSWNDPWTFGGGTKVEIKRTVAAPSVFIFPPSDEQLKSGTASVVCLLNNFYPREAKVQWKVDNALQSGNSQESVTEQDSKDSTYSLSSTLTLSKADYEKHKVYACEVTHQGLSSPVTKSFNRGEC	0.0098 nM	5.3e+06 M⁻¹ s⁻¹	0.012 nM	4.5e+07 M⁻¹ s⁻¹

Results, then the binder that gave them:

Kd (VEGF-A)	kon (VEGF-A)	Kd (PDGF-BB)	kon (PDGF-BB)	Binder
0.18 nM	230000 M⁻¹ s⁻¹	0.00023 nM	3.8e+07 M⁻¹ s⁻¹	CL-33675_GS_4G8.5 (PR-1612496) (bispecific antibody, human IgG1, kappa, L234A L235A, DVD-Ig: outer CL-33675 (PDGF), inner hBDB-4G8.5 (VEGF), linkers GS-H10 / GS-L10(dR); Human IgG1 L234A, L235A, H435A with kappa light chain) heavy: EVTLRESGPALVKPTQTLTLTCTFSGFSLSTYGMGVGWIRQPPGKALEWLANIWWDDDKYYNPSLKNRLTISKDTSKNQVVLTMTNMDPVDTATYYCARIESSGPKYSFDYWGQGTMVTVSSGGGGSGGGGSEIQLVQSGSELKKPGASVKVSCKASGYTFTNYGMYWVRQAPGQGLEYMGWINTETGKPTYADDFKGRFVFSLDTSVSTAYLQISSLKAEDTAVYFCARTNYYYRSYIFYFDYWGQGTMVTVSSASTKGPSVFPLAPSSKSTSGGTAALGCLVKDYFPEPVTVSWNSGALTSGVHTFPAVLQSSGLYSLSSVVTVPSSSLGTQTYICNVNHKPSNTKVDKKVEPKSCDKTHTCPPCPAPEAAGGPSVFLFPPKPKDTLMISRTPEVTCVVVDVSHEDPEVKFNWYVDGVEVHNAKTKPREEQYNSTYRVVSVLTVLHQDWLNGKEYKCKVSNKALPAPIEKTISKAKGQPREPQVYTLPPSREEMTKNQVSLTCLVKGFYPSDIAVEWESNGQPENNYKTTPPVLDSDGSFFLYSKLTVDKSRWQQGNVFSCSVMHEALHNAYTQKSLSLSPGK light: EIVLTQSPGTLSLSPGERATLSCRASSGSIWYSFVSWYQQKPGQAPRLLIYADDQRASGIPDRFSGSGSGTDFTLTISRLEPEDFAVYYCQSYGINIDVVFGGGTKVEIKGGSGGGGSGGATQLTQSPSLSASVGDRVTITCRASESVSTHMHWYQQKPGKQPKLLIYGASNLESGVPSRFSGSGSGTDFTLTISSLQPEDFATYFCQQSWNDPFTFGQGTKLEIKRTVAAPSVFIFPPSDEQLKSGTASVVCLLNNFYPREAKVQWKVDNALQSGNSQESVTEQDSKDSTYSLSSTLTLSKADYEKHKVYACEVTHQGLSSPVTKSFNRGEC
0.17 nM	240000 M⁻¹ s⁻¹	≤ 0.0038 nM	≥ 9e+07 M⁻¹ s⁻¹	3E2.1_GS_4G8.5 (PR-1612499) (bispecific antibody, human IgG1, kappa, L234A L235A, DVD-Ig: outer hBFU-3E2.1 (PDGF), inner hBDB-4G8.5 (VEGF), linkers GS-H10 / GS-L10(dR); Human IgG1 L234A, L235A, H435A with kappa light chain) heavy: EVQLVQSGAEVKKPGSSVKVSCKASGYTFTESYMYWVKQAPGQGLELIGRIDPEDGSTDYVEKFKNKATLTADKSTSTAYMELSSLRSEDTAVYFCARFGARSYFYPMDAWGQGTTVTVSSGGGGSGGGGSEIQLVQSGSELKKPGASVKVSCKASGYTFTNYGMYWVRQAPGQGLEYMGWINTETGKPTYADDFKGRFVFSLDTSVSTAYLQISSLKAEDTAVYFCARTNYYYRSYIFYFDYWGQGTMVTVSSASTKGPSVFPLAPSSKSTSGGTAALGCLVKDYFPEPVTVSWNSGALTSGVHTFPAVLQSSGLYSLSSVVTVPSSSLGTQTYICNVNHKPSNTKVDKKVEPKSCDKTHTCPPCPAPEAAGGPSVFLFPPKPKDTLMISRTPEVTCVVVDVSHEDPEVKFNWYVDGVEVHNAKTKPREEQYNSTYRVVSVLTVLHQDWLNGKEYKCKVSNKALPAPIEKTISKAKGQPREPQVYTLPPSREEMTKNQVSLTCLVKGFYPSDIAVEWESNGQPENNYKTTPPVLDSDGSFFLYSKLTVDKSRWQQGNVFSCSVMHEALHNAYTQKSLSLSPGK light: ETVLTQSPATLSLSPGERATLSCRASESVSTLMHWYQQKPGQQPRLLIYGASNLESGVPARFSGSGSGTDFTLTISSLEPEDFAVYFCQQSWNDPWTFGGGTKVEIKGGSGGGGSGGATQLTQSPSLSASVGDRVTITCRASESVSTHMHWYQQKPGKQPKLLIYGASNLESGVPSRFSGSGSGTDFTLTISSLQPEDFATYFCQQSWNDPFTFGQGTKLEIKRTVAAPSVFIFPPSDEQLKSGTASVVCLLNNFYPREAKVQWKVDNALQSGNSQESVTEQDSKDSTYSLSSTLTLSKADYEKHKVYACEVTHQGLSSPVTKSFNRGEC
0.019 nM	630000 M⁻¹ s⁻¹	≤ 0.0043 nM	≥ 9e+07 M⁻¹ s⁻¹	3E2.1_GS_9E10.1 (PR-1612500) (bispecific antibody, human IgG1, kappa, L234A L235A, DVD-Ig: outer hBFU-3E2.1 (PDGF), inner hBEW-9E10.1 (VEGF), linkers GS-H10 / GS-L10(dR); Human IgG1 L234A, L235A, H435A with kappa light chain) heavy: EVQLVQSGAEVKKPGSSVKVSCKASGYTFTESYMYWVKQAPGQGLELIGRIDPEDGSTDYVEKFKNKATLTADKSTSTAYMELSSLRSEDTAVYFCARFGARSYFYPMDAWGQGTTVTVSSGGGGSGGGGSEIQLVQSGSELKKPGASVKVSCKASGYTFTNYGMYWVKQAPGQGLEYMGWIDTETGRPTYADDFKGRFVFSLDTSVSTAYLQISSLKAEDTAVYFCARWSGDTTGIRGPWFAYWGQGTLVTVSSASTKGPSVFPLAPSSKSTSGGTAALGCLVKDYFPEPVTVSWNSGALTSGVHTFPAVLQSSGLYSLSSVVTVPSSSLGTQTYICNVNHKPSNTKVDKKVEPKSCDKTHTCPPCPAPEAAGGPSVFLFPPKPKDTLMISRTPEVTCVVVDVSHEDPEVKFNWYVDGVEVHNAKTKPREEQYNSTYRVVSVLTVLHQDWLNGKEYKCKVSNKALPAPIEKTISKAKGQPREPQVYTLPPSREEMTKNQVSLTCLVKGFYPSDIAVEWESNGQPENNYKTTPPVLDSDGSFFLYSKLTVDKSRWQQGNVFSCSVMHEALHNAYTQKSLSLSPGK light: ETVLTQSPATLSLSPGERATLSCRASESVSTLMHWYQQKPGQQPRLLIYGASNLESGVPARFSGSGSGTDFTLTISSLEPEDFAVYFCQQSWNDPWTFGGGTKVEIKGGSGGGGSGGDIRMTQSPSSLSASVGDRVTIECLASEDIYSDLAWYQQKPGKSPKLLIYNANGLQNGVPSRFSGSGSGTDYSLTISSLQPEDVATYFCQQYNYFPGTFGQGTKLEIKRTVAAPSVFIFPPSDEQLKSGTASVVCLLNNFYPREAKVQWKVDNALQSGNSQESVTEQDSKDSTYSLSSTLTLSKADYEKHKVYACEVTHQGLSSPVTKSFNRGEC
